{"source": "the supplement of paper PMC9112550", "about": "“Optimization of the antimicrobial peptide Bac7 by deep mutational scanning” (BMC Biology, 2022);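 further: peptides expressed intracellularly from a pBAD plasmid library in pooled LB shake-flask culture, induced with 0.3% L-arabinose, DNA abundance read by NGS, three biological replicates, DESeq2 with apeglm shrinkage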", "data": [{"test_system": "Escherichia coli TOP10", "experiment": "shrunken log2 fold change of peptide-encoding DNA abundance (4.5 h post-induction vs induction); higher = less antimicrobial activity (less host growth inhibition)", "conditions": "time post-induction: 4.5 h; library: site-saturation at positions 5, 18, 19, 20", "values": [{"sequence": "RRIRIRPPRLPRPRPRPVDWPRP", "shrunken log2 fold change": -0.0226}, {"sequence": "RRIRIRPPRLPRPRPRPVEYPRP", "shrunken log2 fold change": -0.116}, {"sequence": "RRIRIRPPRLPRPRPRPVGRPRP", "shrunken log2 fold change": 0.0883}, {"sequence": "RRIRIRPPRLPRPRPRPVGSPRP", "shrunken log2 fold change": 0.36}, {"sequence": "RRIRIRPPRLPRPRPRPVHGPRP", "shrunken log2 fold change": -0.0643}, {"sequence": "RRIRIRPPRLPRPRPRPVKEPRP", "shrunken log2 fold change": -0.0496}, {"sequence": "RRIRIRPPRLPRPRPRPVKIPRP", "shrunken log2 fold change": 0.0113}, {"sequence": "RRIRIRPPRLPRPRPRPVKMPRP", "shrunken log2 fold change": -0.173}, {"sequence": "RRIRIRPPRLPRPRPRPVLGPRP", "shrunken log2 fold change": 0.0875}, {"sequence": "RRIRIRPPRLPRPRPRPVLHPRP", "shrunken log2 fold change": -0.447}, {"sequence": "RRIRIRPPRLPRPRPRPVLLPRP", "shrunken log2 fold change": -0.03}, {"sequence": "RRIRIRPPRLPRPRPRPVLNPRP", "shrunken log2 fold change": -0.492}, {"sequence": "RRIRIRPPRLPRPRPRPVLQPRP", "shrunken log2 fold change": 0.103}, {"sequence": "RRIRIRPPRLPRPRPRPVLYPRP", "shrunken log2 fold change": -0.598}, {"sequence": "RRIRIRPPRLPRPRPRPVMGPRP", "shrunken log2 fold change": -0.718}, {"sequence": "RRIRIRPPRLPRPRPRPVNEPRP", "shrunken log2 fold change": -0.213}, {"sequence": "RRIRIRPPRLPRPRPRPVNGPRP", "shrunken log2 fold change": -0.0532}, {"sequence": "RRIRIRPPRLPRPRPRPVNRPRP", "shrunken log2 fold change": -0.195}, {"sequence": "RRIRIRPPRLPRPRPRPVPWPRP", "shrunken log2 fold change": 2.5}, {"sequence": "RRIRIRPPRLPRPRPRPVQAPRP", "shrunken log2 fold change": 0.0348}, {"sequence": "RRIRIRPPRLPRPRPRPVQIPRP", "shrunken log2 fold change": 0.072}, {"sequence": "RRIRIRPPRLPRPRPRPVQRPRP", "shrunken log2 fold change": -0.039}, {"sequence": "RRIRIRPPRLPRPRPRPVQYPRP", "shrunken log2 fold change": -0.106}, {"sequence": "RRIRIRPPRLPRPRPRPVRYPRP", "shrunken log2 fold change": 0.326}, {"sequence": "RRIRIRPPRLPRPRPRPVSSPRP", "shrunken log2 fold change": -0.213}, {"sequence": "RRIRIRPPRLPRPRPRPVSVPRP", "shrunken log2 fold change": -0.191}, {"sequence": "RRIRIRPPRLPRPRPRPVVEPRP", "shrunken log2 fold change": -0.0638}, {"sequence": "RRIRIRPPRLPRPRPRPVWDPRP", "shrunken log2 fold change": -0.14}, {"sequence": "RRIRIRPPRLPRPRPRPVWIPRP", "shrunken log2 fold change": -0.242}, {"sequence": "RRIRIRPPRLPRPRPRPVYMPRP", "shrunken log2 fold change": -0.678}, {"sequence": "RRIRIRPPRLPRPRPRPVYSPRP", "shrunken log2 fold change": -0.102}, {"sequence": "RRIRIRPPRLPRPRPRPWAWPRP", "shrunken log2 fold change": -0.00783}, {"sequence": "RRIRIRPPRLPRPRPRPWDDPRP", "shrunken log2 fold change": -0.391}, {"sequence": "RRIRIRPPRLPRPRPRPWDVPRP", "shrunken log2 fold change": -0.468}, {"sequence": "RRIRIRPPRLPRPRPRPWFFPRP", "shrunken log2 fold change": -0.198}, {"sequence": "RRIRIRPPRLPRPRPRPWFVPRP", "shrunken log2 fold change": -0.578}, {"sequence": "RRIRIRPPRLPRPRPRPWFYPRP", "shrunken log2 fold change": -0.161}, {"sequence": "RRIRIRPPRLPRPRPRPWGEPRP", "shrunken log2 fold change": -0.0259}, {"sequence": "RRIRIRPPRLPRPRPRPWHIPRP", "shrunken log2 fold change": 0.0542}, {"sequence": "RRIRIRPPRLPRPRPRPWIMPRP", "shrunken log2 fold change": -0.735}, {"sequence": "RRIRIRPPRLPRPRPRPWLEPRP", "shrunken log2 fold change": -0.293}, {"sequence": "RRIRIRPPRLPRPRPRPWMDPRP", "shrunken log2 fold change": 0.0312}, {"sequence": "RRIRIRPPRLPRPRPRPWMKPRP", "shrunken log2 fold change": -0.305}, {"sequence": "RRIRIRPPRLPRPRPRPWMLPRP", "shrunken log2 fold change": -0.13}, {"sequence": "RRIRIRPPRLPRPRPRPWQLPRP", "shrunken log2 fold change": -0.0817}, {"sequence": "RRIRIRPPRLPRPRPRPWTTPRP", "shrunken log2 fold change": -0.102}, {"sequence": "RRIRIRPPRLPRPRPRPWWSPRP", "shrunken log2 fold change": -0.0718}, {"sequence": "RRIRIRPPRLPRPRPRPYCFPRP", "shrunken log2 fold change": -0.834}, {"sequence": "RRIRIRPPRLPRPRPRPYCNPRP", "shrunken log2 fold change": -0.154}, {"sequence": "RRIRIRPPRLPRPRPRPYCRPRP", "shrunken log2 fold change": 0.182}, {"sequence": "RRIRIRPPRLPRPRPRPYDQPRP", "shrunken log2 fold change": -0.295}, {"sequence": "RRIRIRPPRLPRPRPRPYEFPRP", "shrunken log2 fold change": 0.00826}, {"sequence": "RRIRIRPPRLPRPRPRPYEQPRP", "shrunken log2 fold change": -0.868}, {"sequence": "RRIRIRPPRLPRPRPRPYGQPRP", "shrunken log2 fold change": -0.284}, {"sequence": "RRIRIRPPRLPRPRPRPYGTPRP", "shrunken log2 fold change": -0.894}, {"sequence": "RRIRIRPPRLPRPRPRPYHKPRP", "shrunken log2 fold change": -0.165}, {"sequence": "RRIRIRPPRLPRPRPRPYHSPRP", "shrunken log2 fold change": -0.00112}, {"sequence": "RRIRIRPPRLPRPRPRPYHVPRP", "shrunken log2 fold change": -0.186}, {"sequence": "RRIRIRPPRLPRPRPRPYHWPRP", "shrunken log2 fold change": -0.275}, {"sequence": "RRIRIRPPRLPRPRPRPYKEPRP", "shrunken log2 fold change": 0.0131}, {"sequence": "RRIRIRPPRLPRPRPRPYKHPRP", "shrunken log2 fold change": -1.57}, {"sequence": "RRIRIRPPRLPRPRPRPYKIPRP", "shrunken log2 fold change": -0.688}, {"sequence": "RRIRIRPPRLPRPRPRPYMAPRP", "shrunken log2 fold change": -0.281}, {"sequence": "RRIRIRPPRLPRPRPRPYQSPRP", "shrunken log2 fold change": -0.0409}, {"sequence": "RRIRIRPPRLPRPRPRPYRDPRP", "shrunken log2 fold change": -0.0075}, {"sequence": "RRIRIRPPRLPRPRPRPYTDPRP", "shrunken log2 fold change": -0.0335}, {"sequence": "RRIRIRPPRLPRPRPRPYTSPRP", "shrunken log2 fold change": -0.434}, {"sequence": "RRIRIRPPRLPRPRPRPYVIPRP", "shrunken log2 fold change": -0.017}, {"sequence": "RRIRIRPPRLPRPRPRPYVMPRP", "shrunken log2 fold change": -0.274}, {"sequence": "RRIRIRPPRLPRPRPRPYVWPRP", "shrunken log2 fold change": -1.33}, {"sequence": "RRIRIRPPRLPRPRPRPYWFPRP", "shrunken log2 fold change": -0.112}, {"sequence": "RRIRIRPPRLPRPRPRPYYGPRP", "shrunken log2 fold change": -2.94}, {"sequence": "RRIRIRPPRLPRPRPRPYYQPRP", "shrunken log2 fold change": -0.296}, {"sequence": "RRIRKRPPRLPRPRPRPACTPRP", "shrunken log2 fold change": 0.219}, {"sequence": "RRIRKRPPRLPRPRPRPADFPRP", "shrunken log2 fold change": 0.344}, {"sequence": "RRIRKRPPRLPRPRPRPADHPRP", "shrunken log2 fold change": 0.111}, {"sequence": "RRIRKRPPRLPRPRPRPADIPRP", "shrunken log2 fold change": -0.075}, {"sequence": "RRIRKRPPRLPRPRPRPAFYPRP", "shrunken log2 fold change": 0.114}, {"sequence": "RRIRKRPPRLPRPRPRPAHRPRP", "shrunken log2 fold change": 0.562}, {"sequence": "RRIRKRPPRLPRPRPRPAHYPRP", "shrunken log2 fold change": 0.123}, {"sequence": "RRIRKRPPRLPRPRPRPAIAPRP", "shrunken log2 fold change": 0.802}, {"sequence": "RRIRKRPPRLPRPRPRPAIWPRP", "shrunken log2 fold change": 0.463}, {"sequence": "RRIRKRPPRLPRPRPRPAKAPRP", "shrunken log2 fold change": 0.106}, {"sequence": "RRIRKRPPRLPRPRPRPALAPRP", "shrunken log2 fold change": 0.885}, {"sequence": "RRIRKRPPRLPRPRPRPALCPRP", "shrunken log2 fold change": 0.146}, {"sequence": "RRIRKRPPRLPRPRPRPAMCPRP", "shrunken log2 fold change": 0.059}, {"sequence": "RRIRKRPPRLPRPRPRPAPAPRP", "shrunken log2 fold change": 1.05}, {"sequence": "RRIRKRPPRLPRPRPRPAPKPRP", "shrunken log2 fold change": 1.06}, {"sequence": "RRIRKRPPRLPRPRPRPASMPRP", "shrunken log2 fold change": 0.116}, {"sequence": "RRIRKRPPRLPRPRPRPASRPRP", "shrunken log2 fold change": 0.519}, {"sequence": "RRIRKRPPRLPRPRPRPATDPRP", "shrunken log2 fold change": 0.00132}, {"sequence": "RRIRKRPPRLPRPRPRPATLPRP", "shrunken log2 fold change": 0.312}, {"sequence": "RRIRKRPPRLPRPRPRPAVRPRP", "shrunken log2 fold change": 0.951}, {"sequence": "RRIRKRPPRLPRPRPRPAVYPRP", "shrunken log2 fold change": -0.0285}, {"sequence": "RRIRKRPPRLPRPRPRPAWDPRP", "shrunken log2 fold change": 0.497}, {"sequence": "RRIRKRPPRLPRPRPRPAWKPRP", "shrunken log2 fold change": -0.116}, {"sequence": "RRIRKRPPRLPRPRPRPAYMPRP", "shrunken log2 fold change": 0.0668}, {"sequence": "RRIRKRPPRLPRPRPRPCAYPRP", "shrunken log2 fold change": -0.0475}, {"sequence": "RRIRKRPPRLPRPRPRPCDEPRP", "shrunken log2 fold change": 0.121}, {"sequence": "RRIRKRPPRLPRPRPRPCENPRP", "shrunken log2 fold change": 0.0184}, {"sequence": "RRIRKRPPRLPRPRPRPCFLPRP", "shrunken log2 fold change": -0.0702}, {"sequence": "RRIRKRPPRLPRPRPRPCGLPRP", "shrunken log2 fold change": 0.933}, {"sequence": "RRIRKRPPRLPRPRPRPCIKPRP", "shrunken log2 fold change": 0.193}, {"sequence": "RRIRKRPPRLPRPRPRPCLEPRP", "shrunken log2 fold change": 0.0959}, {"sequence": "RRIRKRPPRLPRPRPRPCLHPRP", "shrunken log2 fold change": -0.0515}, {"sequence": "RRIRKRPPRLPRPRPRPCNMPRP", "shrunken log2 fold change": -0.0983}, {"sequence": "RRIRKRPPRLPRPRPRPCNVPRP", "shrunken log2 fold change": -0.192}, {"sequence": "RRIRKRPPRLPRPRPRPCPCPRP", "shrunken log2 fold change": 0.00911}, {"sequence": "RRIRKRPPRLPRPRPRPCPQPRP", "shrunken log2 fold change": 0.242}]}]}
